Where a chain is given by its changes, count along the chain named. Names may count otherwise.

The term stoichiometry N denotes the number of molecules, sites or subunits per partner or assembly.

Series [1] concerns the target T1, taxol-stabilized microtubules (α-/β-tubulin) (bovine, UniProt P81947 1-451; Q6B856 1-445).
T1 construct: α-tubulin, named α-1B tubulin in the cross-linking analysis; β-tubulin, named β-2B tubulin in the cross-linking analysis; Polymer of α/β-tubulin dimers; Bought tubulin is likely a mixture of isotypes; In the polymerization assay (functional rows) the same tubulin was used unpolymerized; also called MTs; α-1B and β-2B tubulin; source: bought: Cytoskeleton, Inc; polymerized according to …
Description: co-sedimentation; Kd determination: 0-10 μM taxol-stabilized microtubules (tubulin dimer), 1 μM BSA, 1 μM protein of interest; 25 mM Hepes pH 7.5, 150 mM NaCl, 1 mM MgCl2, 1 mM EGTA, 2 mM DTE; 10 min room temperature; 350,000 g, 25 °C; gel densitometry, quadratic fit; apparent Kd. The settings on record: both partners purified.

Series [2] deals with the molecule itself. Description: AUC + cross-linking; sedimentation velocity, 42,000 r.p.m., 20 °C, 20 mM Hepes pH 7.5, 300 mM NaCl, 10% glycerol, 2 mM DTE; cross-linking conditions not told (Supplementary Fig. 3).

T1 sequence (P81947 whole entry, chain 1 of 2): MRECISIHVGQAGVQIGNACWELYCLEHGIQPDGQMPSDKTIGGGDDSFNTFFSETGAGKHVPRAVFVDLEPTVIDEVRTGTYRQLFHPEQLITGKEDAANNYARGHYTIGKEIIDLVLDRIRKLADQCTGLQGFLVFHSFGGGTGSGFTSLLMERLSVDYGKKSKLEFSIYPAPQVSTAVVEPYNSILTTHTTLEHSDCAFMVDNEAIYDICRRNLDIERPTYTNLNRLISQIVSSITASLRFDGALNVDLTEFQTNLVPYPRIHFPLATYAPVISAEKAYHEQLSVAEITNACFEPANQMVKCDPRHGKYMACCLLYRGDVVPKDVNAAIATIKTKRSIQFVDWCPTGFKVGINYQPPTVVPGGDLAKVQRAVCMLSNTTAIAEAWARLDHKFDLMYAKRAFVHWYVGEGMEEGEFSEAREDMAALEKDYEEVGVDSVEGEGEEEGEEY
T1 sequence (Q6B856 whole entry, chain 2 of 2): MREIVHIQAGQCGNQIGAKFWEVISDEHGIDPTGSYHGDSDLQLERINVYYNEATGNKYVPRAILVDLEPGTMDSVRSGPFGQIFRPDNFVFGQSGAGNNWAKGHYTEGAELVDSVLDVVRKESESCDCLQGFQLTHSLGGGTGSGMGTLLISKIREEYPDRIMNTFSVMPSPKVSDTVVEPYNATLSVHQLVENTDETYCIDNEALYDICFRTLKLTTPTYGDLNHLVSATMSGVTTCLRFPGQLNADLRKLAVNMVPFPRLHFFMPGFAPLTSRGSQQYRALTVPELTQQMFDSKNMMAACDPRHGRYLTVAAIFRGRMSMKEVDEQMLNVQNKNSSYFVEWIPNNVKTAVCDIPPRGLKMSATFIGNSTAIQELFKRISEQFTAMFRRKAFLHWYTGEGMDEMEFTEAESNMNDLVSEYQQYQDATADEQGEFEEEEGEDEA

B1: SKAP^159–316:Astrin^482–850 complex (complex, human)
chain 1: VRKGYKPLSKQKSEEELKDKNQLLEAVNKQLHQKLTETQGELKDLTQKVELLEKFRDNCLAILESKGLDPALGSETLASRQESTTDHMDSMLLLETLQEELKLFNETAKKQMEELQALKVKLEMKEERVRFLEQQTLCNNQVNDLTTALKEMEQLLEM
chain 2: NKLQHLKESHEMGQALQQARNVMQSWVLISKELISLLHLSLLHLEEDKTTVSQESRRAETLVCCCFDLLKKLRAKLQSLKAEREEARHREEMALRGKDAAEIVLEAFCAHASQRISQLEQDLASMREFRGLLKDAQTQLVGLHAKQEELVQQTVSLTSTLQQDWRSMQLDYTTWTALLSRSRQLTEKLTVKSQQALQERDVAIEEKQEVSRVLEQVSAQLEECKGQTEQLELENSRLATDLRAQLQILANMDSQLKELQSQHTHCAQDLAMKDELLCQLTQSNEEQAAQWQKEEMALKHMQAELQQQQAVLAKEVRDLKETLEFADQENQVAHLELGQVECQLKTTLEVLRERSLQCENLKDTVENLTA
notes: Small kinetochore-associated protein (SKAP); Stoichiometry of the complex was not determined (AUC thwarted by limited solubility); also called SKAP:Astrin complex; source: Tnao38 insect cells (baculovirus), co-expressed, purified (HisTrap FF, Superose 6)
B1: the Kd in series [1] was around 1600 nM.

B2: SKAP^159–316 (expressed alone in E. coli) (domain or fragment, human, UniProt Q9Y448 159-316, looked up)
chain: B1 chain 1
notes: Small kinetochore-associated protein (SKAP); source: E. coli OverExpress C41 (DE3), purified (GSTrap FF, HiTrap Q FF, Superdex 200); not shown: GST, N-terminal, cleaved
With B2, the binding result in series [1] is given as “binds”.

B3: SKAP^135–225 2A mutant (K161A, K164A) (domain or fragment, human, UniProt Q9Y448 135-225, looked up)
chain: VTKITKLRRENGQMKATDTATRRNVRAGYAPLSKQKSEEELKDKNQLLEAVNKQLHQKLTETQGELKDLTQKVELLEKFRDNCLAILESKG
notes: Small kinetochore-associated protein (SKAP); source: E. coli OverExpress C41 (DE3), purified (GSTrap FF, HiTrap Q FF, Superdex 200)
For B3, the “fold reduction of microtubule-binding affinity against wild type” value in series [1] is around 4 fold.

B4: SKAP^135–225 (domain or fragment, human, UniProt Q9Y448 135-225, looked up)
chain: B3 chain with A27K, A30K
notes: Small kinetochore-associated protein (SKAP); Behaved as a trimer in AUC and cross-linking; also called WT; source: E. coli OverExpress C41 (DE3), purified (GSTrap FF, HiTrap Q FF, Superdex 200)
In the case of B4, the “stoichiometry N” value in series [2] was 3. The Kd in series [1] is around 580 nM.

B5: SKAP^135–225 4A mutant (K140A, K149A, K161A, K164A) (domain or fragment, human, UniProt Q9Y448 135-225, looked up)
chain: B3 chain with K6A, K15A
notes: as for B3
As for B5, the “fold reduction of microtubule-binding affinity against wild type” value in series [1] is around 31 fold.

B6: SKAP^159–225 (domain or fragment, human, UniProt Q9Y448 159-225, looked up)
chain: VRKGYKPLSKQKSEEELKDKNQLLEAVNKQLHQKLTETQGELKDLTQKVELLEKFRDNCLAILESKG
notes: as for B2
As to B6, the Kd in series [1] was around 2500 nM.

B7: SKAP^103–225 (domain or fragment, human, UniProt Q9Y448 103-225, looked up)
chain: TQTRATSKSLLPVRSKEVDVSKQLHSGGPENDVTKITKLRRENGQMKATDTATRRNVRKGYKPLSKQKSEEELKDKNQLLEAVNKQLHQKLTETQGELKDLTQKVELLEKFRDNCLAILESKG
notes: Small kinetochore-associated protein (SKAP)
As to B7, the binding result in series [1] is listed as “binds”.

Source of the values: publication PMC4843017, “Molecular requirements for the inter-subunit interaction and kinetochore recruitment of SKAP and Astrin” (Nature Communications, 2016).
